According to PMC6679980 (Biochimica et biophysica acta. General subjects, 2019):

Target: GST-FL-UBQLN1 (full-length wild-type human UBQLN1 GST-fusion protein) (human, UniProt Q9UMX0 1-589)
Assay: pull-down

Sequence of GST-FL-UBQLN1 (full-length wild-type human UBQLN1 GST-fusion protein) (Q9UMX0 whole entry, the tested form may be a part): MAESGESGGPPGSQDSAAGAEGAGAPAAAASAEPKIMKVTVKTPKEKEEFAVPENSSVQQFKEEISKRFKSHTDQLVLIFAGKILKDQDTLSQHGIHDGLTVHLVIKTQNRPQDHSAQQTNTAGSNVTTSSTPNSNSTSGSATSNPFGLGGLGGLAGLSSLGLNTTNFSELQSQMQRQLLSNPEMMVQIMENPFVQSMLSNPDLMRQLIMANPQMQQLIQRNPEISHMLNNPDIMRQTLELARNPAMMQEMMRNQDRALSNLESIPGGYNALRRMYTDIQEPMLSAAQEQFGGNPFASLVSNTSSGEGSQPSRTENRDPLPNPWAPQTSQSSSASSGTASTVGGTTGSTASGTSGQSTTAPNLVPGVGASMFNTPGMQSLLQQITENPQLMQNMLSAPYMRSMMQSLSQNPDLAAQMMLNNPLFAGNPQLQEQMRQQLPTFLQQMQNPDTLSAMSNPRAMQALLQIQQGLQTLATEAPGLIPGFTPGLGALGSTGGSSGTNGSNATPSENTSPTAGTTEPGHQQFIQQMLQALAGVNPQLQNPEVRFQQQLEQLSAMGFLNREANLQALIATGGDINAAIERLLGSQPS

B1: Full-length human S5a proteasome subunit, His-tagged (natural protein, UniProt P55036 1-377, looked up)
chain: MVLESTMVCVDNSEYMRNGDFLPTRLQAQQDAVNIVCHSKTRSNPENNVGLITLANDCEVLTTLTPDTGRILSKLHTVQPKGKITFCTGIRVAHLALKHRQGKNHKMRIIAFVGSPVEDNEKDLVKLAKRLKKEKVNVDIINFGEEEVNTEKLTAFVNTLNGKDGTGSHLVTVPPGPSLADALISSPILAGEGGAMLGLGASDFEFGVDPSADPELALALRVSMEEQRQRQEEEARRAAAASAAEAGIATTGTEDSDDALLKMTISQQEFGRTGLPDLSSMTEEEQIAYAMQMSLQGAEFGQAESADIDASSAMDTSEPAKEEDDYDVMQDPEFLQSVLENLPGVDPNNEAIRNAMGSLASQATKDGKKDKKEEDKK
B1: binds.
